Experimental data: patent US20230365662A1
Changes are numbered by the printed parent chain. Names may count otherwise. “And” between values parts separate entries of the source, which are not always exact repeats. Equal values may be shown once.

B1: KB001 mouse Fab VL T52L (Fab, V domains shown)
VH: EVQLKQSGPGLVAPSQSLSITCTVSGFSLSIYSVHWVRQPPGKGLEWLGMIWGGGSSDYNSALKSRLSISKDNSKSQVFLKMNSLQTDDTAMYYCARNGNFYAMDYWGQGTSVTVSS
VL: QIVLTQSPAIMSASLGERVTMTCTASSSVSSSFLHWYQQKPGSSPQLWIYSLSNLASGVPARFSGSGSGTSYSLTISSMEAEDAATYYCHQYHHSPYIYTFGGGTKLEIK
B2: KB001 mouse Fab VL L55V (Fab, V domains shown)
VH: B1 VH
VL: B1 VL with L52T, L55V
B3: KB001 mouse Fab VL N54E (Fab, V domains shown)
VH: B1 VH
VL: B1 VL with L52T, N54E
B4: KB001 mouse Fab VL S53D (Fab, V domains shown)
VH: B1 VH
VL: B1 VL with L52T, S53D
B5: KB001 mouse Fab VL N54I (Fab, V domains shown)
VH: B1 VH
VL: B1 VL with L52T, N54I
B6: KB001 mouse Fab VL S53V (Fab, V domains shown)
VH: B1 VH
VL: B1 VL with L52T, S53V
B7: KB001 mouse Fab VL L55S (Fab, V domains shown)
VH: B1 VH
VL: B1 VL with L52T, L55S
B8: KB001 mouse Fab VL L55Q (Fab, V domains shown)
VH: B1 VH
VL: B1 VL with L52T, L55Q
B9: KB001 mouse Fab VL N54K (Fab, V domains shown)
VH: B1 VH
VL: B1 VL with L52T, N54K
B10: KB001 mouse Fab VL N54W (Fab, V domains shown)
VH: B1 VH
VL: B1 VL with L52T, N54W
B11: KB001 mouse Fab VL T100D (Fab, V domains shown)
VH: B1 VH
VL: B1 VL with L52T, T100D
B12: KB001 mouse Fab VL N54A (Fab, V domains shown)
VH: B1 VH
VL: B1 VL with L52T, N54A
B13: KB001 mouse Fab VL T52M (Fab, V domains shown)
VH: B1 VH
VL: B1 VL with L52M
B14: KB001 mouse Fab VL T100K (Fab, V domains shown)
VH: B1 VH
VL: B1 VL with L52T, T100K
B15: KB001 mouse Fab VL S53C (Fab, V domains shown)
VH: B1 VH
VL: B1 VL with L52T, S53C
B16: KB001 mouse Fab VL S53R (Fab, V domains shown)
VH: B1 VH
VL: B1 VL with L52T, S53R
B17: KB001 mouse Fab VL N54D (Fab, V domains shown)
VH: B1 VH
VL: B1 VL with L52T, N54D
B18: KB001 mouse Fab VL N54F (Fab, V domains shown)
VH: B1 VH
VL: B1 VL with L52T, N54F
B19: KB001 mouse Fab VL L55K (Fab, V domains shown)
VH: B1 VH
VL: B1 VL with L52T, L55K
B20: KB001 mouse Fab VL L55T (Fab, V domains shown)
VH: B1 VH
VL: B1 VL with L52T, L55T
B21: KB001 mouse Fab VL L55H (Fab, V domains shown)
VH: B1 VH
VL: B1 VL with L52T, L55H
B22: KB001 mouse Fab VL N54L (Fab, V domains shown)
VH: B1 VH
VL: B1 VL with L52T, N54L
B23: KB001 mouse Fab VL S53A (Fab, V domains shown)
VH: B1 VH
VL: B1 VL with L52T, S53A
B24: KB001 mouse Fab VL S53L (Fab, V domains shown)
VH: B1 VH
VL: B1 VL with L52T, S53L
B25: KB001 mouse Fab VL S53E (Fab, V domains shown)
VH: B1 VH
VL: B1 VL with L52T, S53E
B26: KB001 mouse Fab VL S53W (Fab, V domains shown)
VH: B1 VH
VL: B1 VL with L52T, S53W
B27: KB001 mouse Fab VL S53Y (Fab, V domains shown)
VH: B1 VH
VL: B1 VL with L52T, S53Y
B28: KB001 mouse Fab FASEBA VH I31M (Fab, V domains shown)
VH: B1 VH with I31M
VL: B1 VL with L52T
B29: KB001 mouse Fab FASEBA VH S61D (Fab, V domains shown)
VH: B1 VH with S61D
VL: B1 VL with L52T
B30: KB001 mouse Fab FASEBA VH S61Q (Fab, V domains shown)
VH: B1 VH with S61Q
VL: B1 VL with L52T
B31: KB001 mouse Fab FASEBA VH V34I (Fab, V domains shown)
VH: B1 VH with V34I
VL: B1 VL with L52T
B32: KB001 mouse Fab FASEBA VH S56A (Fab, V domains shown)
VH: B1 VH with S56A
VL: B1 VL with L52T
B33: KB001 mouse Fab FASEBA VH S30G (Fab, V domains shown)
VH: B1 VH with S30G
VL: B1 VL with L52T
B34: KB001 mouse Fab FASEBA VH S30E (Fab, V domains shown)
VH: B1 VH with S30E
VL: B1 VL with L52T
B35: KB001 mouse Fab FASEBA VH S28P (Fab, V domains shown)
VH: B1 VH with S28P
VL: B1 VL with L52T
B36: KB001 mouse Fab FASEBA VH S30N (Fab, V domains shown)
VH: B1 VH with S30N
VL: B1 VL with L52T
B37: KB001 mouse Fab FASEBA VH S30Y (Fab, V domains shown)
VH: B1 VH with S30Y
VL: B1 VL with L52T
B38: KB001 mouse Fab FASEBA VH S30A (Fab, V domains shown)
VH: B1 VH with S30A
VL: B1 VL with L52T
B39: KB001 mouse Fab FASEBA VH I31T (Fab, V domains shown)
VH: B1 VH with I31T
VL: B1 VL with L52T
B40: KB001 mouse Fab FASEBA VH S28E (Fab, V domains shown)
VH: B1 VH with S28E
VL: B1 VL with L52T
B41: KB001 mouse Fab FASEBA VH I31V (Fab, V domains shown)
VH: B1 VH with I31V
VL: B1 VL with L52T

biological target: HRgpA-6H (Porphyromonas gingivalis) (UniProt P28784); experiment: ELISA, FASEBA Fab on coated HRgpA-6H

Binder | OD450nm | Ratio OD(Variant)/OD(WT)
B1 | 0.769 | 0.977
B2 | 0.706 | 0.901
B3 | 0.744 and 0.74 | 0.95 and 0.944
B4 | 0.775 | 0.984
B5 | 0.755 and 0.772 and 0.754 | 0.964 and 0.985 and 0.962
B6 | 0.702 | 0.891
B7 | 0.672 | 0.858
B8 | 0.711 and 0.692 and 0.684 | 0.907 and 0.883 and 0.873
B9 | 0.727 | 0.928
B10 | 0.646 | 0.825
B11 | 0.645 | 1.23
B12 | 0.776 | 0.99
B13 | 0.662 | 0.841
B14 | 0.625 | 1.19
B15 | 0.697 | 0.885
B16 | 0.637 | 0.809
B17 | 0.725 | 0.925
B18 | 0.765 | 0.976
B19 | 0.769 | 0.981
B20 | 0.727 | 0.928
B21 | 0.695 and 0.731 | 0.887 and 0.933
B22 | 0.774 | 0.988
B23 | 0.784 | 0.996
B24 | 0.639 and 0.636 | 0.811 and 0.808
B25 | 0.766 | 0.973
B26 | 0.727 | 0.923
B27 | 0.776 and 0.781 | 0.985 and 0.992

biological target: HRgpA-6H (Porphyromonas gingivalis) (UniProt P28784); experiment: ELISA on coated HRgpA-6H

Binder | OD450nm | Ratio OD(Variant)/OD(WT)
B28 | 0.522 | 1.03
B29 |  | 1.14 and 1.11 (2×) and 0.956
B30 | 0.634 | 1.28
B31 | 0.891 and 0.868 and 0.866 | 1.08 and 1.05 (2×)
B32 | 0.891 and 0.86 and 0.82 | 1.01 and 0.978 and 0.932
B33 | 0.533 and 0.515 | 1.06 and 1.02
B34 | 0.567 | 1.12
B35 | 0.545 and 0.452 and 0.514 | 1.01 and 0.837 and 0.952
B36 | 0.565 and 0.56 | 1.12 and 1.11
B37 | 0.53 and 0.488 | 1.05 and 0.967
B38 | 0.534 and 0.499 and 0.494 | 1.06 and 0.989 and 0.979
B39 | 0.56 and 0.534 | 1.11 and 1.06
B40 | 0.561 and 0.551 and 0.494 | 1.04 and 1.02 and 0.915
B41 | 0.537 and 0.521 | 1.06 and 1.03
